This is an account of results in the supplement of paper PMC5998384.

The test system of data set [1] is HeLa Kyoto. The experiment in a line: solubility in G1/S (NP-40 vs SDS abundance) (log2 ratio); higher = more soluble. Conditions: cell cycle stage: G1/S.
Data set [2] has as its system HeLa Kyoto. The experiment in a line: melting temperature (median over replicates), in situ; higher = more thermally stable.
The test system of data set [3] is HeLa Kyoto. The experiment in a line: solubility change mitosis vs G1/S (difference of NP-40 vs SDS log2 ratios) (log2 ratio difference); higher = more soluble in mitosis.
The subject of data set [4] is HeLa Kyoto. The data set can be described thus: thermal stability score vs G1/S (z-score of summed log2 fold changes over temperatures); higher = more thermally stable than in G1/S.
The mark [5] stands for this setting: cell cycle stage: early G1 (4.5 h after nocodazole release).
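Wherever melting temperature (median over replicates), in situ is given: HeLa Kyoto cells synchronized by double thymidine or nocodazole block, proteins quantified by TMT10plex mass spectrometry, three independent biological replicates.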
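Wherever solubility change mitosis vs G1/S (difference of NP-40 vs SDS log2 ratios) is given: synchronized HeLa Kyoto cells (double thymidine block for G1/S, nocodazole release for mitosis), protein amounts in NP-40 versus SDS lysates quantified by mass spectrometry, three biological replicates.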
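Wherever solubility in G1/S (NP-40 vs SDS abundance) is given: HeLa Kyoto cells arrested at G1/S by double thymidine block, proteins quantified by TMT10plex mass spectrometry in mild NP-40 versus SDS extracts, three biological replicates.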
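Wherever thermal stability score vs G1/S (z-score of summed log2 fold changes over temperatures) is given: synchronized HeLa Kyoto cells, proteins quantified by TMT10plex mass spectrometry, three biological replicates, mitosis taken 0.5 h after nocodazole release, G1/S directly after double thymidine block.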

As for “MAAGDGDVKLGTLGSGSESSNDGGSESPGDAGAAAEGGGWAAAALALLTGGGEMLLNVALVALVLLGAYRLWVRWGRRGLGAGAGAGEESPATSLPRMKKRDFSLEQLRQYDGSRNPRILLAVNGKVFDVTKGSKFYGPAGPYGIFAGRDASRGLATFCLDKDALRDEYDDLSDLNAVQMESVREWEMQFKEKYDYVGRLLKPGEEPSEYTDEEDTKDHNKQD [PGRMC2]”, the “solubility in G1/S (log2)” value in the data set with HeLa Kyoto [1] was 0.236. The melting temperature is 52.3 °C with HeLa Kyoto [2] (cell cycle stage: G1/S) and 53.9 °C in the data set on HeLa Kyoto [2] (cell cycle stage: mitosis). In the data set with HeLa Kyoto [3], the “solubility change mitosis (log2)” value was -0.00423. Besides, the thermal stability score with HeLa Kyoto [4] (setting [5]) was -0.577; in the data set on HeLa Kyoto [4] (cell cycle stage: mitosis), 0.992.
“MAVPAAAMGPSALGQSGPGSMAPWCSVSSGPSRYVLGMQELFRGHSKTREFLAHSAKVHSVAWSCDGRRLASGSFDKTASVFLLEKDRLVKENNYRGHGDSVDQLCWHPSNPDLFVTASGDKTIRIWDVRTTKCIATVNTKGENINICWSPDGQTIAVGNKDDVVTFIDAKTHRSKAEEQFKFEVNEISWNNDNNMFFLTNGNGCINILSYPELKPVQSINAHPSNCICIKFDPMGKYFATGSADALVSLWDVDELVCVRCFSRLDWPVRTLSFSHDGKMLASASEDHFIDIAEVETGDKLWEVQCESPTFTVAWHPKRPLLAFACDDKDGKYDSSREAGTVKLFGLPNDS [THOC3]”: the “solubility in G1/S (log2)” value in the data set on HeLa Kyoto [1] is -0.421. Moreover, the melting temperature in the data set on HeLa Kyoto [2] (cell cycle stage: G1/S) was found to be 50.6 °C; in the data set on HeLa Kyoto [2] (cell cycle stage: mitosis), 51.9 °C. Also, in the data set with HeLa Kyoto [3], the “solubility change mitosis (log2)” value came out at 0.047. The thermal stability score in the data set with HeLa Kyoto [4] (setting [5]) is -1.08; in the data set on HeLa Kyoto [4] (cell cycle stage: mitosis), 1.13.
Turning to “MFLPHMNHLTLEQTFFSQVLPKTVKLFDDMMYELTSQARGLSSQNLEIQTTLRNILQTMVQLLGALTGCVQHICATQESIILENIQSLPSSVLHIIKSTFVHCKNSESVYSGCLHLVSDLLQALFKEAYSLQKQLMELLDMVCMDPLVDDNDDILNMVIVIHSLLDICSVISSMDHAFHANTWKFIIKQSLKHQSIIKSQLKHKDIITSLCEDILFSFHSCLQLAEQMTQSDAQDNADYRLFQKTLKLCRFFANSLLHYAKEFLPFLSDSCCTLHQLYLQIHSKFPPSLYATRISKAHQEEIAGAFLVTLDPLISQLLTFQPFMQVVLDSKLDLPCELQFPQCLLLVVVMDKLPSQPKEVQTLWCTDSQVSETTTRISLLKAVFYSFEQCSGELSLPVHLQGLKSKGKAEVAVTLYQHVCVHLCTFITSFHPSLFAELDAALLNAVLSANMITSLLAMDAWCFLARYGTAELCAHHVTIVAHLIKSCPGECYQLINLSILLKRLFFFMAPPHQLEFIQKFSPKEAENLPLWQHISFQALPPELREQTVHEVTTVGTAECRKWLSRSRTLGELESLNTVLSALLAVCNSAGEALDTGKQTAIIEVVSQLWAFLNIKQVADQPYVQQTFSLLLPLLGFFIQTLDPKLILQAVTLQTSLLKLELPDYVRLAMLDFVSSLGKLFIPEAIQDRILPNLSCMFALLLADRSWLLEQHTLEAFTQFAEGTNHEEIVPQCLSSEETKNKVVSFLEKTGFVDETEAAKVERVKQEKGIFWEPFANVTVEEAKRSSLQPYAKRARQEFPWEEEYRSALHTIAGALEATESLLQKGPAPAWLSMEMEALQERMDKLKRYIHTLG [C1ORF112]”, the “solubility in G1/S (log2)” value in the data set with HeLa Kyoto [1] was -0.208. Besides, the melting temperature in the data set on HeLa Kyoto [2] (cell cycle stage: G1/S) was found to be 47.9 °C; in the data set with HeLa Kyoto [2] (cell cycle stage: mitosis), 48.9 °C. In addition, the “solubility change mitosis (log2)” value in the data set with HeLa Kyoto [3] was -0.0761. Further, the thermal stability score in the data set on HeLa Kyoto [4] (setting [5]) was found to be 0.547; in the data set with HeLa Kyoto [4] (cell cycle stage: mitosis), 1.23.
With “MVSKALLRLVSAVNRRRMKLLLGIALLAYVASVWGNFVNMRSIQENGELKIESKIEEMVEPLREKIRDLEKSFTQKYPPVKFLSEKDRKRILITGGAGFVGSHLTDKLMMDGHEVTVVDNFFTGRKRNVEHWIGHENFELINHDVVEPLYIEVDQIYHLASPASPPNYMYNPIKTLKTNTIGTLNMLGLAKRVGARLLLASTSEVYGDPEVHPQSEDYWGHVNPIGPRACYDEGKRVAETMCYAYMKQEGVEVRVARIFNTFGPRMHMNDGRVVSNFILQALQGEPLTVYGSGSQTRAFQYVSDLVNGLVALMNSNVSSPVNLGNPEEHTILEFAQLIKNLVGSGSEIQFLSEAQDDPQKRKPDIKKAKLMLGWEPVVPLEEGLNKAIHYFRKELEYQANNQYIPKPKPARIKKGRTRHS [UXS1]”, the “solubility in G1/S (log2)” value with HeLa Kyoto [1] turned out to be 0.264. For the same sequence, the melting temperature in the data set with HeLa Kyoto [2] (cell cycle stage: G1/S) was 54.6 °C; in the data set with HeLa Kyoto [2] (cell cycle stage: mitosis), 54.7 °C. The “solubility change mitosis (log2)” value in the data set on HeLa Kyoto [3] was -0.193. Moreover, the thermal stability score in the data set with HeLa Kyoto [4] (setting [5]) is 0.535; with HeLa Kyoto [4] (cell cycle stage: mitosis) it was -0.237.
On to “MEQLRAAARLQIVLGHLGRPSAGAVVAHPTSGTISSASFHPQQFQYTLDNNVLTLEQRKFYEENGFLVIKNLVPDADIQRFRNEFEKICRKEVKPLGLTVMRDVTISKSEYAPSEKMITKVQDFQEDKELFRYCTLPEILKYVECFTGPNIMAMHTMLINKPPDSGKKTSRHPLHQDLHYFPFRPSDLIVCAWTAMEHISRNNGCLVVLPGTHKGSLKPHDYPKWEGGVNKMFHGIQDYEENKARVHLVMEKGDTVFFHPLLIHGSGQNKTQGFRKAISCHFASADCHYIDVKGTSQENIEKEVVGIAHKFFGAENSVNLKDIWMFRARLVKGERTNL [PHYH]”, for which, in the data set on HeLa Kyoto [1], the “solubility in G1/S (log2)” value was determined as 0.298. The melting temperature in the data set with HeLa Kyoto [2] (cell cycle stage: G1/S) amounted to 51.6 °C; with HeLa Kyoto [2] (cell cycle stage: mitosis) it was 52.4 °C. Besides, in the data set with HeLa Kyoto [3], the “solubility change mitosis (log2)” value was -0.191. The thermal stability score was 2.97 with HeLa Kyoto [4] (setting [5]) and 2.13 in the data set with HeLa Kyoto [4] (cell cycle stage: mitosis).
Take “MESGQPARRIAMAPLLEYERQLVLELLDTDGLVVCARGLGADRLLYHFLQLHCHPACLVLVLNTQPAEEEYFINQLKIEGVEHLPRRVTNEITSNSRYEVYTQGGVIFATSRILVVDFLTDRIPSDLITGILVYRAHRIIESCQEAFILRLFRQKNKRGFIKAFTDNAVAFDTGFCHVERVMRNLFVRKLYLWPRFHVAVNSFLEQHKPEVVEIHVSMTPTMLAIQTAILDILNACLKELKCHNPSLEVEDLSLENAIGKPFDKTIRHYLDPLWHQLGAKTKSLVQDLKILRTLLQYLSQYDCVTFLNLLESLRATEKAFGQNSGWLFLDSSTSMFINARARVYHLPDAKMSKKEKISEKMEIKEGEETKKELVLESNPKWEALTEVLKEIEAENKESEALGGPGQVLICASDDRTCSQLRDYITLGAEAFLLRLYRKTFEKDSKAEEVWMKFRKEDSSKRIRKSHKRPKDPQNKERASTKERTLKKKKRKLTLTQMVGKPEELEEEGDVEEGYRREISSSPESCPEEIKHEEFDVNLSSDAAFGILKEPLTIIHPLLGCSDPYALTRVLHEVEPRYVVLYDAELTFVRQLEIYRASRPGKPLRVYFLIYGGSTEEQRYLTALRKEKEAFEKLIREKASMVVPEEREGRDETNLDLVRGTASADVSTDTRKAGGQEQNGTQQSIVVDMREFRSELPSLIHRRGIDIEPVTLEVGDYILTPEMCVERKSISDLIGSLNNGRLYSQCISMSRYYKRPVLLIEFDPSKPFSLTSRGALFQEISSNDISSKLTLLTLHFPRLRILWCPSPHATAELFEELKQSKPQPDAATALAITADSETLPESEKYNPGPQDFLLKMPGVNAKNCRSLMHHVKNIAELAALSQDELTSILGNAANAKQLYDFIHTSFAEVVSKGKGKK [ERCC4]”: the “solubility in G1/S (log2)” value in the data set with HeLa Kyoto [1] was -0.215. For the same sequence, the melting temperature in the data set on HeLa Kyoto [2] (cell cycle stage: G1/S) worked out at 49.6 °C; with HeLa Kyoto [2] (cell cycle stage: mitosis), 50.4 °C. Moreover, the “solubility change mitosis (log2)” value in the data set on HeLa Kyoto [3] is -0.274. The thermal stability score came out at 0.278 with HeLa Kyoto [4] (setting [5]) and 0.608 in the data set on HeLa Kyoto [4] (cell cycle stage: mitosis).
Consider “MKVNRETKRLYVGGLSQDISEADLQNQFSRFGEVSDVEIITRKDDQGNPQKVFAYINISVAEADLKKCMSVLNKTKWKGGTLQIQLAKESFLHRLAQEREAAKAKKEESTTGNANLLEKTGGVDFHMKAVPGTEVPGHKNWVVSKFGRVLPVLHLKNQHKRKIIKYDPSKYCHNLKKIGEDFSNTIPISSLTWELEGGNDPMSKKRRGEFSDFHGPPKKIIKVQKDESSTGSLAMSTRPRRVIERPPLTQQQAAQKRTCDSITPSKSSPVPVSDTQKLKNLPFKTSGLETAKKRNSISDDDTDSEDELRMMIAKEENLQRTTQPSINESESDPFEVVRDDFKSGVHKLHSLIGLGIKNRVSCHDSDDDIMRNDREYDSGDTDEIIAMKKNVAKVKNSTEFSQMEKSTKKTSFKNRENCELSDHCIKLQKRKSNVESALSHGLKSLNRKSPSHSSSSEDADSASELADSEGGEEYNAMMKNCLRVNLTLADLEQLAGSDLKVPNEDTKSDGPETTTQCKFDRGSKSPKTPTGLRRGRQCIRPAEIVASLLEGEENTCGKQKPKENNLKPKFQAFKGVGCLYEKESMKKSLKDSVASNNKDQNSMKHEDPSIISMEDGSPYVNGSLGEVTPCQHAKKANGPNYIQPQKRQTTFESQDRKAVSPSSSEKRSKNPISRPLEGKKSLSLSAKTHNIGFDKDSCHSTTKTEASQEERSDSSGLTSLKKSPKVSSKDTREIKTDFSLSISNSSDVSAKDKHAEDNEKRLAALEARQKAKEVQKKLVHNALANLDGHPEDKPTHIIFGSDSECETEETSTQEQSHPGEEWVKESMGKTSGKLFDSSDDDESDSEDDSNRFKIKPQFEGRAGQKLMDLQSHFGTDDRFRMDSRFLETDSEEEQEEVNEKKTAEEEELAEEKKKALNVVQSVLQINLSNSTNRGSVAAKKFKDIIHYDPTKQDHATYERKRDDKPKESKAKRKKKREEAEKLPEVSKEMYYNIAMDLKEIFQTTKYTSEKEEGTPWNEDCGKEKPEEIQDPAALTSDAEQPSGFTFSFFDSDTKDIKEETYRVETVKPGKIVWQEDPRLQDSSSEEEDVTEETDHRNSSPGEASLLEKETTRFFFFSKNDERLQGSDLFWRGVGSNMSRNSWEARTTNLRMDCRKKHKDAKRKMKPK [NOL8]”, for which the “solubility in G1/S (log2)” value in the data set on HeLa Kyoto [1] was -1.85. In addition, the melting temperature in the data set on HeLa Kyoto [2] (cell cycle stage: G1/S) and in the data set on HeLa Kyoto [2] (cell cycle stage: mitosis) was 51.3 °C each time. Moreover, the “solubility change mitosis (log2)” value in the data set on HeLa Kyoto [3] stood at 1.08. Further, the thermal stability score in the data set with HeLa Kyoto [4] (setting [5]) came to 1.32; in the data set on HeLa Kyoto [4] (cell cycle stage: mitosis), 2.26.
